Laboratory results from US9580716B2, “Site-specific incorporation of phosphoserine into proteins in Escherichia coli” (Yale University, priority 2010, dated 2017).

How the values were obtained:
[^14C]Sep-tRNA^Cys = EF-Tu hydrolysis protection assay with Sep-tRNA^Cys; type: binding, Methanocaldococcus jannaschii; settings: pH 8.2; 40 μM factor, 2 μM [^14C]Sep-tRNA^Cys, 25° C.; FIG. 3 and FIG. 5B
Procedure: Protection of Sep-tRNA^Cys by EF-Tu was assayed as described earlier with slight modifications (Ling J, et al. RNA. 2007 November; 13(11):1881-6.). Briefly, EF-Tu or EF-Sep (both purified as maltose binding protein fusion proteins) were activated for 20 min. at 37° C. in buffer containing 100 mM Tris-HCl (pH 8.2), 120 mM NH4Cl, 7 mM MgCl2, 5 mM DTT, 5 mM phosphoenolpyruvate, 1.5 mM GTP, and 0.12 μg/μl pyruvate kinase. Hydrolysis of 2 μM [^14C]Sep-tRNA^Cys was then monitored at 25° C. in the presence of 40 μM EF-Tu (wt), EF-Sep, or BSA, respectively. Aliquots were taken from the reaction mix at indicated time points and spotted on 3MM filter discs presoaked with 10% trichloroacetic acid. Filters were washed with 5% trichloroacetic acid, dried, and radioactivity was measured by liquid scintillation counting.
(§1) To assay hydrolysis protection of acylated tRNA^Cys by EF-Tu, […] tRNA^Cys in vitro transcripts acylated with [^14C]Sep or [^35S]Cys, respectively, were phenol/chlorophorm extracted, and the aqueous phase was passed over Sephadex® G25 Microspin columns (GE Healthcare) equilibrated with water. […] Hydrolysis of 2 μM [^14C]Sep-tRNA^Cys was then monitored at 25° C. in the presence of 40 μM EF-Tu (wt), EF-Sep, or BSA, respectively. […] Filters were washed with 5% trichloroacetic acid, dried, and radioactivity was measured by liquid scintillation counting.

[^35S]Cys-tRNA^Cys = EF-Tu hydrolysis protection assay with Cys-tRNA^Cys; type: binding, Methanocaldococcus jannaschii; settings: pH 8.2; FIG. 5A
Procedure: FIGS. 5A and 5B are graphs showing EF-Tu protects Cys-tRNA^Cys(FIG. 5A) but not Sep-tRNA^Cys (FIG. 5B) from deacylation. Hydrolysis of M. jannaschii [^35S]Cys-tRNA^Cys or [^14C]Sep-tRNA^Cys was determined at pH 8.2 and room temperature in the presence or absence of EF-Tu.
Given that EF-Tu is a component of quality control in protein synthesis (LaRiviere, FJ., et al. Science 294, 165 (2001)), it is highly plausible that Sep-tRNA^Sep may be rejected by EF-Tu in order not to interfere with the complicated cellular mechanism of phosphoprotein production. […] This assumption was tested in EF-Tu mediated Sep-tRNA hydrolysis protection experiments (J. Ling et al., Proc Natl Acad Sci USA 104, 15299 (2007)), and incubated recombinant E. coli EF-Tu with the Mj tRNA^Cys in vitro transcript either acylated with [^35S]Cys or [^14C]Sep at pH 8.2. […]
as §1

E. coli Top10ΔserB = test: CAT (UAG at position 112) suppression assay, chloramphenicol resistance; type: cell-based, Escherichia coli
Procedure: The suppressor tRNA^Sep was coexpressed with the indicated enzymes in E. coli Top10ΔserB. Selection was carried out on LB agar plates containing 2 mM Sep and various concentrations of chloramphenicol.
pCAT112TAG-SepT was created from pACYC 184. The gene encoding chloramphenicol acetyltransferae (CAT) was modified by quickchange mutagenesis to introduce an amber stop codon at position Asp112 (Wang L, et al. Science 292:498 (2001)). The resulting plasmid was PCR amplified using primers PBLAF (5′-TGCGCAATGCGGCCGCCCGTAGCGCCGATGGTAGTGT-3′, SEQ ID NO:9) and PBLAR (5′-ACACGGAGATCTCTAAAGTATATATGAGTAAAC-3′, SEQ ID NO: 10) and ligated with a PCR product containing a tRNA^Sep expression cassette from pSepT, created with primers TSEPF (5′-GCATGCGCCGCCAGCTGTTGCCCGTCTCGC-3′, SEQ ID NO:17) and TSEPR (5′-GCATAGATCTTCAGCTGGCGAAAGGGGGATG-3′, SEQ ID NO:18).
Efficient and selective addition of Sep to the E. coli genetic repertoire requires exclusive interaction of SepRS with tRNA^Sep for Sep-tRNA^Sep formation without interfering in the host translation system as well as a sufficient intracellular concentration of Sep. As E. coli has a Sep-compatible transporter (Wanner, B L. FEMS Microbiol Lett 79, 133 (1992)), Sep (2 mM) was added to the growth medium, and the endogenous serB gene encoding phosphoserine phosphatase was deleted in the E. coli test strain. To assess whether the Mj tRNA^Sep/Mmp SepRS pair is functional and orthogonal in E. coli, a suppression assay was performed that employed a chloramphenicol acetyltransferase (CAT) gene with a UAG stop codon at the permissive position 112 (wild-type amino acid: Asp) to produce chloramphenicol (Cm) acetyltransferase; then cell survival was measured in the presence of Sep and varying amounts of Cm. The different IC50 values (FIG. 2) relate to suppression efficiency (i.e., amount of CAT made dependent on the various transformed genes). When only tRNA^Sep is expressed (FIG. 2, second bar) Cm resistance increases about 3.3-fold over background (FIG. 2, first bar). Thus, tRNA^Sep can be aminoacylated to a certain degree by an unknown E. coli aminoacyl-tRNA synthetase (Gln is being incorporated at the amber stop codon). […] This may indicate that SepRS can out-compete any endogenous aminoacyl-tRNA synthetase and form Sep-tRNAS^Sep; however, this aminoacyl-tRNA is not delivered to the ribosome or not accommodated on the ribosome. […] Co-expression of tRNA^Sep, SepRS and SepCysS should result in formation of Sep-tRNA^Sep and subsequent SepCysS-mediated conversion to Cys-tRNA^Sep (A. Sauerwald et al., Science 307, 1969 (2005)). Indeed, a 2.3-fold increase in Cm resistance is observed (FIG. 2, sixth bar). This further supports the notion that while Sep-tRNA^Sep is synthesized, it cannot be used properly by the E. coli protein biosynthesis machinery.
Resulting pKD-SepRS-EFTu plasmids were transformed into E. coli Top10ΔserB containing pCAT112-SepT for a third round of selection which was carried out under the same conditions as the first. This time, individual colonies were isolated from agar plates and clones were tested for their ability to grow on Cm over a concentration range from […]. Total plasmid was purified from isolates showing strong Cm resistance, and pKD-SepRS-EFTu plasmids were subjected to sequencing. […]

Mmp SepRS = test: In vitro aminoacylation of tRNA with Sep by Mmp SepRS; type: biochemical, Methanococcus maripaludis
Mmp SepRS, sequence (as listed by the source): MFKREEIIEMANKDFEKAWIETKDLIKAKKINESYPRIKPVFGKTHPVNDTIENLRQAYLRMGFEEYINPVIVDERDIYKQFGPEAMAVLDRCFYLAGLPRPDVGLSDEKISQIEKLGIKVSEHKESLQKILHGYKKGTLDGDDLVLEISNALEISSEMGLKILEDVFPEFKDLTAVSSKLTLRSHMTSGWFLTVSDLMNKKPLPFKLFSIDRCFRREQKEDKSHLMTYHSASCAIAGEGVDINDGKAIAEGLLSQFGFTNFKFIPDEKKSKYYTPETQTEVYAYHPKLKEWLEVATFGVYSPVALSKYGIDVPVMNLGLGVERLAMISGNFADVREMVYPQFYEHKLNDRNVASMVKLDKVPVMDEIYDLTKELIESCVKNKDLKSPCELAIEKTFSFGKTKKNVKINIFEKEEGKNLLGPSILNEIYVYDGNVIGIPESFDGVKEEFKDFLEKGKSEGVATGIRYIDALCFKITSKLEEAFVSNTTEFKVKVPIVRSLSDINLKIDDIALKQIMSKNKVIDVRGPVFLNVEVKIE
Procedure: In vitro transcript of Methanocaldococcus jannaschii tRNA^Cys was prepared and acylated with [^14C]Sep (55 mCi/mmol) using recombinant Methanococcus maripaludis SepRS as described previously by Hohn M J, et al. Proc Natl Acad Sci USA. 2006 Nov. 28; 103(48):18095-100. Sep-tRNA^Cys was phenol/chlorophorm extracted, and the aqueous phase was passed over Sephadex G25 Microspin columns (GE Healthcare) equilibrated with water.
Total tRNA from E. coli Top10 or from E. coli Top10 complemented with pCysT or pSepT, respectively, was purified by standard procedures and acylated with [^14C]Sep by M. maripaludis SepRS as described previously. […] M. jannaschii tRNA^Cys contains m^1G37 when isolated from M. jannaschii. Since the E. coli methylase TrmD is known to methylate G37 of archaeal tRNA^Pro, it is believed that the in vivo expressed tRNA^Sep also carries the m^1G37 modification. In vitro transcript of M. jannaschii tRNA^Cys was prepared and acylated with [^14C]Sep or [^35S]Cys using recombinant M. maripaludis SepRS or CysRS. M. jannaschii tRNA^Cys transcript was chosen for these experiments because of the poor folding properties of in vitro transcribed M. maripaludis tRNA^Cys (Hohn, M. J. Proc Natl Acad Sci USA 103, 18095 (2006)).

Molecule: EF-Tu: wild type recombinant E. coli elongation factor Tu
- protection of Sep-tRNA^Cys from deacylation ([^14C]Sep-tRNA^Cys): significantly deacylated irrespective of the presence of EF-Tu
- protection of Cys-tRNA^Cys from deacylation ([^35S]Cys-tRNA^Cys): protected
- Cm resistance (E. coli Top10ΔserB; tRNA^Sep and SepRS plus additional EF-Tu, FIG. 2 fifth bar): does not improve the result

B1: tRNA^Sep: amber suppressor tRNA derived from Mj tRNA^Cys with C20U change and two anticodon mutations; SEQ ID NO:41 (nucleic acid)
chain: GCCGGGGTAGTCTAGGGGTTAGGCAGCGGACTGCAGATCCGCCTTACGTGGGTTCAAATCCCACCCCCGGCT
modifications: expressed or natural sequence
- activity of tRNA^Sep when compared to tRNA^Cys (Mmp SepRS; in vitro aminoacylation by Mmp SepRS, tRNA overexpressed in E. coli, effect of the anticodon change, FIG. 1C): about 40%
- improvement of aminoacylation by SepRS through the C20U change (Mmp SepRS; tRNA^Sep derived from Mj tRNA^Cys, no effect on CysRS recognition): 2.5 fold
- increase in Cm resistance (E. coli Top10ΔserB; co-expression of tRNA^Sep and Mmp CysRS, FIG. 2 eight bar): 12.3 fold
- increase in Cm resistance (E. coli Top10ΔserB; co-expression of tRNA^Sep, SepRS and SepCysS, FIG. 2 sixth bar): 2.3 fold
- increase in Cm resistance over background (E. coli Top10ΔserB; only tRNA^Sep expressed, 2 mM Sep, FIG. 2 second bar): about 3.3 fold
- Cm resistance (E. coli Top10ΔserB; simultaneous expression of tRNA^Sep and SepRS, FIG. 2 third bar): does not provide Cm resistance
